Biological target: TNFR1 on L929 cells (mouse (endogenous in L929)) (UniProt P25118)
Chain of UniProt P25118 (P25118 30-454): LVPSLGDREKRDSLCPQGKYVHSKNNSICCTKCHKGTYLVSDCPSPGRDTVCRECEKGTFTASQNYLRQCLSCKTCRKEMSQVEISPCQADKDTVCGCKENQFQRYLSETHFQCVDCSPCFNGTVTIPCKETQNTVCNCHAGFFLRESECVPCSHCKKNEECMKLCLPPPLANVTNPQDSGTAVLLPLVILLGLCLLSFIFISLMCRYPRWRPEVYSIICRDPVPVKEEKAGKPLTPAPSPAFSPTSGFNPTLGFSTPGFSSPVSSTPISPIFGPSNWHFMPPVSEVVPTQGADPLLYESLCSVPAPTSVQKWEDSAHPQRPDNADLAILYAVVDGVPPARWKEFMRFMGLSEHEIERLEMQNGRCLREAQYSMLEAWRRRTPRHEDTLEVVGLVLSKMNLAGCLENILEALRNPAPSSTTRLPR

Substance | cytotoxicity against L929 cells (WST-1, with actinomycin D, 24 h), EC50 [ng/mL]
randomly PEGylated scTNF-α (directly PEGylated PEG5K scTNF-α) (ligand) | 0.0046
PRINT PEG20K scTNF-α (N-terminal mono-PEGylated single-chain TNF-α) (ligand) | 0.00062
citraconylated scTNF-α (ligand) | 0.0076
PRINT PEG5K scTNF-α (N-terminal mono-PEGylated single-chain TNF-α) (ligand) | 0.00058
recombinant single-chain TNF-α, His tag cleaved, unmodified (ligand) | 0.00035

From paper PMC4683619
